Experimental data published in patent US20060142193.

Assays:
TAT-SRF = TAT-SRF (UniProt P11831)
[1] = target: T1, serum response factor (SRF) (UniProt P11831)
T1 sequence: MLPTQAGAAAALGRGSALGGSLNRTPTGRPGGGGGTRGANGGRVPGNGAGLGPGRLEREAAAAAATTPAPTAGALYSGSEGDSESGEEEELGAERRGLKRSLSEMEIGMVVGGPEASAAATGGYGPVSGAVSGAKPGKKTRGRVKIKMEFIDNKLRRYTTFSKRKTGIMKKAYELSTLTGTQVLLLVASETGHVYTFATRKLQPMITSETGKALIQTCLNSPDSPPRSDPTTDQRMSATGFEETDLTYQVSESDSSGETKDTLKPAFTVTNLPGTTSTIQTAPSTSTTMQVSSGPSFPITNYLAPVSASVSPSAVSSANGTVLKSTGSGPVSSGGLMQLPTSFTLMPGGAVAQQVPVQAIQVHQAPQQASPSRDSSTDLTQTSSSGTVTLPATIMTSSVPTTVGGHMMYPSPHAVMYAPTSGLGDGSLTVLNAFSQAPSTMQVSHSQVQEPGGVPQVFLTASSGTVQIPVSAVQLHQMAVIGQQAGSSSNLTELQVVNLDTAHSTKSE

TAT-SRF245A/254A = TAT-SRF245A/254A (UniProt P11831)
[2] = target: endogenous ROCK1 of neonatal rat cardiomyocytes (UniProt Q63644)
Sequence of endogenous ROCK1 of neonatal rat cardiomyocytes (Q63644 2-1369): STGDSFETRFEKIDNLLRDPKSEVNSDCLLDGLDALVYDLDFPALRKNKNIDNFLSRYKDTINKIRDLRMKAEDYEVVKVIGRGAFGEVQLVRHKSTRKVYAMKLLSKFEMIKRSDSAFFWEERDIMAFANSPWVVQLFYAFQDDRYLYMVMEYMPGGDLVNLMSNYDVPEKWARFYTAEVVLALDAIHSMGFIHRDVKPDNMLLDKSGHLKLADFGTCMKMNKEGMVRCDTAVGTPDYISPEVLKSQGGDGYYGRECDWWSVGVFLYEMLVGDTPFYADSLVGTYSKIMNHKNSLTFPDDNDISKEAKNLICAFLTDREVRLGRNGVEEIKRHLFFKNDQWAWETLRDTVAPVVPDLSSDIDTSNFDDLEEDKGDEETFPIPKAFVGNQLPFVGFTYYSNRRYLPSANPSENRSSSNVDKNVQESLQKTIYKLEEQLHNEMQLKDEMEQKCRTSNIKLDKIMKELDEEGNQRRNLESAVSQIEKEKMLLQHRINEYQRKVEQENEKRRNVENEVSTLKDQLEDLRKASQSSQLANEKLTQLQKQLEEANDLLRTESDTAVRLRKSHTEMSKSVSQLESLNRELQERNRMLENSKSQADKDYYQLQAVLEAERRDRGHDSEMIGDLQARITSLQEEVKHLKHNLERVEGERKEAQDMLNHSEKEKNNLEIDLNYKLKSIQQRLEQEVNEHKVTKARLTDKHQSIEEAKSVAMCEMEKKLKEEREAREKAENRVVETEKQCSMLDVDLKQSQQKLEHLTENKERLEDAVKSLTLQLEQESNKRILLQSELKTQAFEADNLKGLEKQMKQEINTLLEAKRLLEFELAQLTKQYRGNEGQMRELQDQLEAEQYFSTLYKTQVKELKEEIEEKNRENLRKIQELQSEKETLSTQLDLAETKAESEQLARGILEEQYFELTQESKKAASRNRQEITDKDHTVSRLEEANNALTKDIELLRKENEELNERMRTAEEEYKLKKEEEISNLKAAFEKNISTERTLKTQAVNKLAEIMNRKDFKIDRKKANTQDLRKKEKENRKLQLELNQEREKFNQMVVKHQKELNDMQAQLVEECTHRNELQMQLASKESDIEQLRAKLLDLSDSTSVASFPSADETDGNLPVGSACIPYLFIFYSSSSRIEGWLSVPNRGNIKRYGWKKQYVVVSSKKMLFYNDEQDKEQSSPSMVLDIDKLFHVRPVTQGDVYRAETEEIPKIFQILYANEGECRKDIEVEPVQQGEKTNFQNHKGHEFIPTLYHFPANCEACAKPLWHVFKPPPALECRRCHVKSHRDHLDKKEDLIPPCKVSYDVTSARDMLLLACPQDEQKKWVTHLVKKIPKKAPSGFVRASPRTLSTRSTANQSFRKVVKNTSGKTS

## active caspase 3 (recombinant caspase 3)
TAT-SRF
  in vitro cleavage by recombinant caspase 3: only TAT-SRF was cleaved by caspase 3
[1]
  in vitro cleavage of SRF: Activated caspase 3 is able to cleave SRF in vitro
TAT-SRF245A/254A
  in vitro cleavage by recombinant caspase 3: SRF245A/254A mutant was resistant to caspase 3 cleavage

## conditional caspase 3 (iCasp3)
[2]
  130 kDa ROCK1 cleavage fragment by Western blot of infected cardiomyocytes: The 130 kDa cleavage fragment of ROCK1 was detected in cardiomyocytes infected with Ad-G/iCasp3 and treated with CID
